Consider four molecules from patent US20190144863, “MODULATING THE CELLULAR STRESS RESPONSE” (The General Hospital Corporation, published 2019).

A value given as a limit tells only on which side of the number the result lay.

For data set [1], the target named is T1, EZH2 (UniProt Q61188 Q61188:1-746). The data set is described as follows: filter; double-filter binding, same buffer with yeast tRNA; extremely low affinity. The following applies: label: radiolabelled (cpm).
For data set [2], the target named is T1, EZH2. The data set is described as follows: FP filter; double-filter binding; 50 mM Tris pH 8.0, 100 mM NaCl, 5 mM MgCl2, 50 ng/ul yeast tRNA, 30 C. The following applies: folded; critical region nt 81-131.

T1 sequence (Q61188 whole entry, one chain of several): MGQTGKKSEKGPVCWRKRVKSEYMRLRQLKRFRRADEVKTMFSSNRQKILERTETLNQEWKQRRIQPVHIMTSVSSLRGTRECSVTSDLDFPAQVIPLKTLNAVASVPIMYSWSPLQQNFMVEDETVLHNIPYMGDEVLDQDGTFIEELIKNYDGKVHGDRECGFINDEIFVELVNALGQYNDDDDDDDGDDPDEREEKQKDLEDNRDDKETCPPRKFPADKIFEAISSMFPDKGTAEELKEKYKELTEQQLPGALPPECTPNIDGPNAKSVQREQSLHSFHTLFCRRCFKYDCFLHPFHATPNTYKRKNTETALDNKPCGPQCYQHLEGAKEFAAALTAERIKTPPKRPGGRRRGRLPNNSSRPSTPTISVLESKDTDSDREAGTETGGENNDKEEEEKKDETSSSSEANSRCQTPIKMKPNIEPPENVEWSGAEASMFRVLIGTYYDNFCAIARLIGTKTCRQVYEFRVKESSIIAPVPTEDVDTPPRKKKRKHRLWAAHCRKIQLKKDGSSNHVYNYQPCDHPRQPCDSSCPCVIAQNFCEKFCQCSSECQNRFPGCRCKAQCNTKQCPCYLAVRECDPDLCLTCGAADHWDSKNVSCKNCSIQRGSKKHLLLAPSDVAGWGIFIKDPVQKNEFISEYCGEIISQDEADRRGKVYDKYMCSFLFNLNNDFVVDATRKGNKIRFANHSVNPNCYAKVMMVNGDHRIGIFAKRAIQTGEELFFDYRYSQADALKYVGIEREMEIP

Turning to CGUAACGAGAUCUGACUCCCUCUUCUGGAGUGUCUGAAGACA (ssRNA, [none]) [B2 RNA domain III], the equilibrium dissociation constant (Kd) with EZH2 [1] was > 3000 nM.

B1: B2 RNA domain I+II (ssRNA)
RNA: GGGGCUGGUGAGAUGGCUCAGUGGGUAAGAGCACCCGACUGCUCUUCCGAAGGUCCGGAGUUCAAAUCCCAGCAACCACAUGGUGGCUCACAACCAUCCGUAACG
modifications: [none]
On to B1, for which the Kd with EZH2 [1] is > 3000 nM.

B2: B2 RNA full length (ssRNA)
RNA: GGGGCUGGUGAGAUGGCUCAGUGGGUAAGAGCACCCGACUGCUCUUCCGAAGGUCCGGAGUUCAAAUCCCAGCAACCACAUGGUGGCUCACAACCAUCCGUAACGAGAUCUGACUCCCUCUUCUGGAGUGUCUGAAGACAGCUACAGUGUACUUACAUAUAAUAAAUAAAUAAAUCUUUAAAAAAAAA
On to B2, for which the Kd with EZH2 [2] was found to be 423 nM.

B3: B2 RNA domain I (ssRNA)
RNA: GGGGCUGGUGAGAUGGCUCAGUGGGUAAGAGCACCCGACUGCUCUUCCGAAGGUCCGGAGUUCAAAUCCCAG
modifications: [none]
Consider B3, for which, in the data set with EZH2 [1], the Kd is > 3000 nM.
